From patent US12263245B2, “Immunomodulating treatments of body cavities” (UROGEN PHARMA LTD., priority 2023, dated 2025)

Key:
CD4+ICOShi T cells = settings: patients treated systemically with two doses, cited from earlier work
[1] = design: species or system human; settings: in vivo
[2] = Aggregation stability of AGEN1884 drug product; assay type: physicochemical
Description: AGEN1884 is very stable to aggregation.

Row | Substance | Expression of CD4+ICOShi T cells (CD4+ICOShi T cells; blood samples) | Increase in levels of IFN-γ compared to untreated patients (CD4+ICOShi T cells) | Sustained concentration of zalifrelimab detected in urine overtime [1] | Increase in aggregate ([2]; all samples at all ambient temperatures analyzed (even elevated) through the nine-month time point) | Zalifrelimab aggregates after 24 hours ([2]; stored at about 2° C.-8° C. for at least 24 hours)
1 | ipilimumab: an anti-CTLA-4 antibody | increased expression | approximately five-fold |  |  | 
2 | zalifrelimab: recombinant, fully human immunoglobulin G1 monoclonal antibody that neutralizes the inhibitory effects of CTLA-4 |  |  | below the level of quantitation | no increase in aggregate was detected | substantially free from zalifrelimab aggregates
